Assay results from the domain aggregation screens of Martell et al. (2025).

Test: soluble fraction after stress (log2 fold change); higher = more stays soluble; pooled small domains, quantitative proteomics
Conditions: stress: 50 degC
How it was run: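 After stress at 50°C, the amount of each protein still soluble was measured. This was done on pooled custom libraries of small protein domains, using high-throughput quantitative proteomics. The figure given is a base-two log fold change and stands for aggregation propensity, with higher values meaning more protein stays in solution.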

In order of falling “soluble fraction (log2)” value:
1. HMKVSNWYFNGAPSATTPPTSQWTTEKDKKAHIGDTFTSLDKSPSPNAGKSWRYTPSYTWEEIV  0.344
2. HMNLGNLAYESKVTKQVLNMIRPLHPEYSSDDITRAVKEILSEEGSRQRRVDEIARGALDVLMGNPR  0.216
3. HMEQPLSLKLANNAFSRFWGNANPAEKDTQPNNSDIAKWVIEQSGGKITQTMADKIAQIIRPEWAA  0.184
4. HMRIPANIAEDIKKLQKKEHHLHHHLGRDPFDDELAKELEWDTEQVSEIRQMIKNPELLEELLEAEREEE  0.172
5. HMDGRVQATAEKLRAALDRLARSSVGSPMIERQLTVAALAREARVGRNAIYANHRDILDELIRVRQQRRA  0.144
6. HMPGEIKKIPINSISYQDLKQHPYFDAYLAKQVIKYRETKGRIENIEQFREATRAYQSLIEKVTPYLDFE  0.14
7. HMSDESALLELVKQIIADNPKAVEEIRAGKEKAMGFLIGQAMKASRGSANPQIISRLVREQLG  0.128
8. HMQALDNNDALEEIIKKVITENPSQVTEFRNGKDSLMNFLVGKVMAASGGKANPKTLPETIEKIIK  0.12
9. HMSSDLSNVVKIIDTLKHKKGALLPILHQIQREIGYIPLKTIDTIAKKLQQTPAEIHGVISFYHQFRTS  0.0942
10. HMAKPVKSPLPGSVIKVAVKVGQQIKRGDLLLTLESMKMENSILAEKDGVVKNIHVQAGQSVMQDDLLLDI  0.0752
11. HMTNADRFIGEEAMVIKKIDDINNDGQVKIAGQVWSAVSEDKSPLEEGTIVKVIAIRGVKLVVEPVS  0.0662
12. HMGLDNEGFERLRQKITRLLSEEALPVKELVDSFASKMRQEVLETLAFLQQEGVIEEKNGKLFLK  0.0365
13. HMRLSVRQRMSDVLGALKTQAFVEFTQLFRPQEGRMGVTVTFSAILELLREGLIEIVQSEPFAPIHVRAGA  -0.0036
14. HMKRNTKAEVLEILLNSGETPVSGERLAENLGISRNAVWKAVTALKEDGYNISAKRNSGYILNKS  -0.0063
15. HMDDPITVAYRETEDAIAQVQREGFPVEMPPANSYIRRIQHELAGRFNLDSESYGDEPERRVRIRPQQ  -0.00875
16. HMVGEYTVKKGDTLWKIAGQTLGSPLRYAEIYELNKDVIEEAALGRGKKNSSNGHWIFQGTVLKIPA  -0.00974
17. HMTIRPEDVELVPAEDGYMQGDVVSNIFKGVHYELEVKANGYDWMVHTTKYVEVGSHVGIKVIPFNIQV  -0.0208
18. HMIENITIELNKKALALDFELNKDLPEGVLETIPTLVSLMVRFDPLTVSYHFLRDYIDALLESNLNVDL  -0.0273
19. HMGQKMLTIELQEKVNKMPDNLASYDLKLSADGMSLIYKYSLKSERTGITALLQELKNAGLVMRDLKTEQ  -0.0274
20. HMSATVLVHVLGEVRKPGVVSLPEGSRVQDAITAAGGLTSRAKPGDLNLAARVSDGAQLVIGRSGSQVRTT  -0.0286
21. HMDKWFPVSSDHKVQVGDYLRTADGLVKVEATHNEYGTFYGKIITAIHDDVVKGETYEYRIDDVQVLA  -0.0324
22. HMYSDDNKSILNLIDNLFNKENIKIDINAKKLLSNYLGVDRLVTKGEIEKAILFAGTKKHLSIEDISAFLS  -0.0337
23. HMGIAEAKRVIVRTLHDVLGPEADFLTEKIDVAQTAAELRVHAEKYRDMLVDMGKPKKSAAFWEAFEAALP  -0.0544
24. HMGEQYYVLIDNKQNGPHNINAIQKMIDQNIVNRQTLIWKKGMTDWGNIMDDKDLKEMVNKIP  -0.0562
25. HMAEKNALWEEDAVYAADSSALARDGYDAIVRTDKGGKKGYLVVGTGGRERFMPLQTLVMLGYLKK  -0.065
26. HMSLEEQNGAKDRQVEAYELLLKAQRALDQEDTAGFQAAMKDLEPLSSQLDAQGQTLYHELLPFVS  -0.0812
27. HMDKSNEVLMNHYRKQEINQAKKRLEEEKMSIIQVLQLTNKEVITTDELLEALYISKEQLLDEIINTTQ  -0.0889
28. HMPKNVEVPNVVGLSLPMAKLRLTQLGLHIVVRDSVWSETGQPNTILDQDPQPGKKIKPESTVYVKVN  -0.0939
29. HMTNVFSIIGKKALVIKDIDPIHSSGQIKLNGEVWSAETENDEIIKEGSEVEVLKINGVKAIVKLV  -0.107
30. HMTELPLTPRSKRILEMSALEARRLNHSYIGTEHLLMAIIRDGDGVAAKILESLGVNLPNFYTDTVRSIE  -0.121
31. HMSTTDGIERFLASGAVKGIGRTMAARIVEHFGSRTLTVMESEPERLTEVAGIGRKKAESIAASYAELS  -0.156
32. HMSESIFTLYGDEKFEKIRYYLKERGFITLDALARFDFDELLFVPGVSELLISEAKQLFSRYDTSSLAAKE  -0.17
33. HMKKTTEFAVTPEFQQRLEASPELKAAFQALTPGRQRAHLLFFAAPKQAQTRQARIEKSLPQIMAGKGLN  -0.184
34. HMLINIKTNSAVNVRSGPGMGFEVVNTYPSGYILQAKEMQKDGGDNVWYKVKDGWLSANYTIDI  -0.198
35. HMGPLSDRSVADWLLRLGLADTANNRLLLQVMHAAGLPLERTAVRAMRETAAGRPEGTDAREWLQAAAAAQ  -0.208
36. HMKVYIKDISDLSDKLKSLLIENDIDDSNKLFEVEDQVLLEIKGLGSKTIDKIKDIVTEYLKKNN  -0.218
37. HMGMNKEHFIIELKIYLKALNPKDQAIILAKYKALFDARVAEGETEEQVAKSLGKPRVIAEEILKEQGIE  -0.236
38. HMLGDAVLRQVLETIPEDPAVDYLELRRNTGMTEADLDRVLADLENLGVINKKRTVEQVLYWRT  -0.294
39. HMLPIGSSREQVISSLNKMHQDYKEEGNFIYAGYFKQGLPLVPSPRISIALQFNETAHLEKIDATLNYV  -0.305
40. HMDKSFYETFEKIGHGDFDKGLNHVWQHANDGNGTATLLLSKLFLEFGDLDNFEKYLNISAEQSNPVAMKI  -0.305
41. HMTFENMFIENSGETLDREFLVENLRGISWQSYDRSVDVLVSRLRGKLGETPNNTRFIKTIHGVGYKFIGE  -0.316
42. HMTNTDALINRAAKVVEEINPDKNTGRVSIDGDLWRAKSSSGELIEQNKQVIVISIESTIVTVKI  -0.343
43. HMPATIEGIRLYLSSGLIKGVGEEMASRIVKAFGTDTIRVLDEEPERLLKVRGVGKKSLDRIRTSWAEH  -0.386
44. HMSEKIDINNSNELELKQLPLTNEQIKSLIEFRRLHGEIQNIYELKNIDFFNIEKVHELKAHIEIKKII  -0.427
45. HMGEIHALIPGLVSRLFVKPGDRVENGQGLLILEAMKMENEIDSPISGVVGKIYIKAGDKVEKGELIMEIN  -0.46
46. HMKEKLGEFENVFLSVDELQKLKSKLGAETESYIERLSNYIASSGKKYKSHYATILSWTQKDTK  -0.462
47. HMNTPLYLKIREQIFDALRSGRWAANDPLPSETKLASEFEVSQGTIRKAIDDLVAQNILYRHQGRGTFIRR  -0.5
48. HMAHESYVKEQLLLSLTNHEDPIMQISLIEQLTKMHERNIIHELEKLTVDVQTNEEVKVQAYASLLILS  -0.53
49. HMKFLYQQVYQDIKDKITSAQYQFGDLLPSEREIGEEYHVDRTTVRKAFSLLVDEGLVEKRAGKGSVVIS  -0.594
50. HMVQVHEWTNKAGRTIKAKFVRGDAQSVTIFLGGRNFVLKIADLSEESQALARKLSAPPPPP  -0.607
51. HMDIYLDDINRKILHLLSQGVKTKSLRDYIDLSMSAIEKRKKHLKDLFLIEDGKDETLLSEARKKGF  -0.672
52. HMHKYQVGETVYYTSPTFGRAAATGSYIVVKLLPSEGDDYQYRIKSSGEAFERVAKESQLDR  -0.734
53. HMNLDELGNRIREQRIKQRLKQQDIANALMLSAQAVSKWERGENAPDISVLPDLVKILGVSVDWLLTGP  -0.734
54. HMTHEAEDLNALRMMVRDPIFSSDEPDLQQLRGAVAHAPQFVDRFKELYNDYQRLAEFVQNSL  -0.769
55. HMNNLVTRREVEILGWIKEGKTTSDIAGILSLSPFTVKNHVQNILKKLGARSRSHAVAQAINLGLLH  -0.773
56. HMFIVTDQMQRVLDYITEKEKATNNDLEELLGVKSTRIYTITRKLIQHNLIIPVGKGKNKYYIL  -0.79
57. HMEKKTILIPPVITVRALAEISQIPVNRLLQELIKNGVFTSINEKIDFDTAVIIGADLNLDIQLL  -0.95
58. HMPPNRDDEHLQALRDYYAANRRIPSLQRVASLLGFSSRSAAVKLMGRLADEGFIERTADDDAWITGKRFF  -1.19
59. HMEKINLIIEEDNNLRLDKVIAMQLQELSRTQIQDMINQGLVLVNQKKEKASYKTKLNDEIEITILD  -1.37
60. HMEILPAYRDIKKEALLGNINAEFKYVNLLLEHNYIEQAFNIIEDMKTRVDDNPEFEELKSRVADAYLMY  -1.38
61. HMIDAHTTLLAKRLESKGFLALTDKSSAEEIYEEFGISKKAFKKALGALYKERLVRIGEDGVVWM  -1.43
62. HMYIDLHEIWKSLTDEEQTVVKLLETEPAHVDTLIENSQIPASRILATLTLLEVRGIVKRLPGRMFSLAD  -1.45
63. HMSKHATLLEALAELTVKLKPHTQLPSERQLSEDFGVSRMTLRRAIDVMQSRGYIYTVPSKGLYVSEP  -1.59
64. HMSEVSEILTRARFFAGVKTDAELSTLLKIPYGTLIGWKTRKNIPESRIAQMALILGIRRDTLIPA  -1.71
65. HMVPTATVGENTSTLPVRQLPGGPVLVVLVRGDIVLPLPGHAFQNGDVWREISTVNGVIGWVPDEFLDY  -1.9
66. HMDSATDRVALKELLNTLSARERTIITLRYFSDQTQTQVAKSLGISQVQVSRLENAILQRLRKL  -1.94
67. HMNLTSSDIQKILSYALLADNSITLNSIEESMASLKLKKMSAEQLIELLEVSSMVLRNTNNSWSIL  -1.95
68. HMFEMPTSLVRTLSAIAIKQPVMQSEIIKLRGAGAYDHIKELIIRELVHRKEEGRSPILTTTKKFQEYFRL  -2.33
69. HMLISYRVDALANEAGLSVDTIRYYQKLGILDPPKRTGRHSEYSPDHLERLIEIRRLADAGLTLSQISEI  -2.46
70. HMVSSYTMAIQINGKLRATHDFSVDTSQEDIKKIIINLPAIQKYINGVEIKKFIIVPQKIVNIV  -2.52
71. HMSQISKLWRPSEDVTEILTRSGMDSEFLEGLIPEFIIYWSERADVLVSYNSKFIEHARLKWAQHSAEIKT  -2.63
72. HMNLLQAHLLRLESAALLAEVREVDRQLSRWLHPLTPQSDVAIIDERNWEAAVARLTELGVHIEEGRW  -2.92
73. HMENIIKISASYEGLRVDQFLSNYLKISRSKVQKYISEEKIFLNNVPTKTNRKVKLDDIISYNLNF  -3.01
74. HMFGDQMQSYLSRLSQIDVDIIALKYGDNFTYREIGLILEMSEDSVRQRAVRARKKLETMIQKG  -3.1
75. HMRIYFSPSEIGFYHESDKQAYLLAGTWPNDLLEISEKWFLYLLEGQQKGKVITVNDYDQPVLVD  -3.31
